In publication PMC5504490 (Journal of Proteome Research, 2017):

Molecular target: RNAP β′ subunit with 6his (rpoC-6his), in purified RNAP (B. subtilis (strain BS200), UniProt P37871 1-1199)
Assay: cross-linking

Sequence of RNAP β′ subunit with 6his (rpoC-6his), in purified RNAP (P37871 whole entry): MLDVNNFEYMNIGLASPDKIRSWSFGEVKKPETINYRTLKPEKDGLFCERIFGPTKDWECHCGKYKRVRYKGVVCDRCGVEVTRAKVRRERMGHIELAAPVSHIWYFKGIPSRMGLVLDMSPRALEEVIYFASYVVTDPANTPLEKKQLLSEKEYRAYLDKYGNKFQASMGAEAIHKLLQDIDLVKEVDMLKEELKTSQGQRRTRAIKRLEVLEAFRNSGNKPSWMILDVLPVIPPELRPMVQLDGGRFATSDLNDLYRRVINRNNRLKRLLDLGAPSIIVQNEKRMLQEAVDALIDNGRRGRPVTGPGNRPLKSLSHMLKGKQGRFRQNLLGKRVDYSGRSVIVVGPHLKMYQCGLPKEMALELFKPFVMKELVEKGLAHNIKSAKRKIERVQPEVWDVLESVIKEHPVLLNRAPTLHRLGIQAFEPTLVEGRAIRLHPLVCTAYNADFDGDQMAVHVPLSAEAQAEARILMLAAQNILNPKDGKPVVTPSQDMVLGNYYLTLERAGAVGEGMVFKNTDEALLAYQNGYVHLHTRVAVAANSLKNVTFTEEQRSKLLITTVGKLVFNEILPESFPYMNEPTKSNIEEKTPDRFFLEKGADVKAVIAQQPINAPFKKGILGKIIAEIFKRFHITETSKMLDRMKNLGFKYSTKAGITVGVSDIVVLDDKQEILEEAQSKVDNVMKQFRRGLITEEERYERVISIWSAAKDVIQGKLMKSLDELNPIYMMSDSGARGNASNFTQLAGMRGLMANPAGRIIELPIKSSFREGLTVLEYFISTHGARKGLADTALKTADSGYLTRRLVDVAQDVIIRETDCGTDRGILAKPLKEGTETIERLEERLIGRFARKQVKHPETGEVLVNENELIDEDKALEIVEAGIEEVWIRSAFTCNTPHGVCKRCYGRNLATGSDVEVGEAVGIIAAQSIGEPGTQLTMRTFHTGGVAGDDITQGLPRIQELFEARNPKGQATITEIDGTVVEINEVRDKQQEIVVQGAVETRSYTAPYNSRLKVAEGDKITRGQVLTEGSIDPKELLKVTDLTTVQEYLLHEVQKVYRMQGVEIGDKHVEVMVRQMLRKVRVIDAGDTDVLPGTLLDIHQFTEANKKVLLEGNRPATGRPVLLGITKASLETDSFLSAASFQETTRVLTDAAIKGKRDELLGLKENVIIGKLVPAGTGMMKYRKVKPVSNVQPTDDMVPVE

binding result: binds
B1: δ subunit (RpoE) of RNAP (natural protein)
chain: MGIKQYSQEELKEMALVEIAHELFEEHKKPVPFQELLNEIASLLGVKKEELGDRIAQFYTDLNIDGRFLALSDQTWGLRSWYPYDQLDEETQPTVKAKKKKAKKAVEEDLDLDEFEEIDEDDLDLDEVEEELDLEADDFDEEDLDEDDDDLEIEEDIIDEDDEDYDDEEEEIK
